Assay results published in patent publication US7001748.

Key:
[1] = target: T1, acyl-ACP4(4) adduct 4a ((2S,3R)-diketide on ACP4(4)), Q03132
T1 chain: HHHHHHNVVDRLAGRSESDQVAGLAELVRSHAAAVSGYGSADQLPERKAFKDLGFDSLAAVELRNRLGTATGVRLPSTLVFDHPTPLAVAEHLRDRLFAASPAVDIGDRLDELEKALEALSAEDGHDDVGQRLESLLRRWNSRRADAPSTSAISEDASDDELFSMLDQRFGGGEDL

[2] = target: T2, acyl-ACP4(4) adduct 4d ((2R,3R)-diketide on ACP4(4)), Q03132
T2 chain: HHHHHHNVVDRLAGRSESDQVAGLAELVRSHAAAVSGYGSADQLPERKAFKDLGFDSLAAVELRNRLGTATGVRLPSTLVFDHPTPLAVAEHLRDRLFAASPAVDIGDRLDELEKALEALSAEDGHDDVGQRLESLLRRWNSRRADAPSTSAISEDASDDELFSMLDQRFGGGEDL

[3] = target: T3, acyl-ACP4(4) adduct 4b ((2R,3S)-diketide on ACP4(4)), Q03132
T3 chain: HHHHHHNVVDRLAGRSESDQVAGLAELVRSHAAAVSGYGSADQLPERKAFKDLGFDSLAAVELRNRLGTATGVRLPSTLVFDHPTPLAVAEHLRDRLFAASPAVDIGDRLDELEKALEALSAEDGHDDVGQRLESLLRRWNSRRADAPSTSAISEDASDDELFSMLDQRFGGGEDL

[4] = target: T4, acyl-ACP4(4) adduct 4c ((2S,3S)-diketide on ACP4(4)), Q03132
T4 chain: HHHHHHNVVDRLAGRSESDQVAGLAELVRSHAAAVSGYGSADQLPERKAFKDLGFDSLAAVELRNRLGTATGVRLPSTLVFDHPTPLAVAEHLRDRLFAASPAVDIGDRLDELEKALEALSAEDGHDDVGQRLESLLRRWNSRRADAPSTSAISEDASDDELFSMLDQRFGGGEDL

B1: (5)M3+TE (derivative of M3+TE where the natural N-terminal linker has been replaced with the N-terminal linker of module 5 of DEBS; plasmid pST132) (protein)
chain: MSGDNGMTEEKLRRYLKRTVTELDSVTARLREVEHRAGEPIAIVSMACRLPGGVNTPQRLWELLREGGETLSGFPTDRGWDLARLHHPDPDNPGTSYVDKGGFLDDAAGFDAEFFGVSPREAAAMDPQQRLLLETSWELVENAGIDPHSLRGTATGVFLGVAKFGYGEDTAAAEDVEGYSVTGVAPAVASGRISYTMGLEGPSISVDTACSSSLVALHLAVESLRKGESSMAVVGGAAVMATPGVFVDFSRQRALAADGRSKAFGAGADGFGFSEGVTLVLLERLSEARRNGHEVLAVVRGSALNQDGASNGLSAPSGPAQRRVIRQALESCGLEPGDVDAVEAHGTGTALGDPIEANALLDTYGRDRDADRPLWLGSVKSNIGHTQAAAGVTGLLKVVLALRNGELPATLHVEEPTPHVDWSSGGVALLAGNQPWRRGERTRRARVSAFGISGTNAHVIVEEAPEREHRETTAHDGRPVPLVVSARTTAALRAQAAQIAELLERPDADLAGVGLGLATTRARHEHRAAVVASTREEAVRGLREIAAGAATADAVVEGVTEVDGRNVVFLFPGQGSQWAGMGAELLSSSPVFAGKIRACDESMAPMQDWKVSDVLRQAPGAPGLDRVDVVQPVLFAVMVSLAELWRSYGVEPAAVVGHSQGEIAAAHVAGALTLEDAAKLVVGRSRLMRSLSGEGGMAAVALGEAAVRERLRPWQDRLSVAAVNGPRSVVVSGEPGALRAFSEDCAAEGIRVRDIDVDYASHSPQIERVREELLETTGDIAPRPARVTFHSTVESRSMDGTELDARYWYRNLRETVRFADAVTRLAESGYDAFIEVSPHPVVVQAVEEAVEEADGAEDAVVVGSLHRDGGDLSAFLRSMATAHVSGVDIRWDVALPGAAPFALPTYPFQRKRYWLQPAAPAAASDELAYRVSWTPIEKPESGNLDGDWLVVTPLISPEWTEMLCEAINANGGRALRCEVDTSASRTEMAQAVAQAGTGFRGVLSLLSSDESACRPGVPAGAVGLLTLVQALGDAGVDAPVWCLTQGAVRTPADDDLARPAQTTAHGFAQVAGLELPGRWGGVVDLPESVDDAALRLLVAVLRGGGRAEDHLAVRDGRLHGRRVVRASLPQSGSRSWTPHGTVLVTGAASPVGDQLVRWLADRGAERLVLAGACPGDDLLAAVEEAGASAVVCAQDAAALREALGDEPVTALVHAGTLTNFGSISEVAPEEFAETIAAKTALLAVLDEVLGDRAVEREVYCSSVAGIWGGAGMAAYAAGSAYLDALAEHHRARGRSCTSVAWTPWALPGGAVDDGYLRERGLRSLSADRAMRTWERVLAAGPVSVAVADVDWPVLSEGFAATRPTALFAELAGRGGQAEAEPDSGPTGEPAQRLAGLSPDEQQENLLELVANAVAEVLGHESAAEINVRRAFSELGLDSLNAMALRKRLSASTGLRLPASLVFDHPTVTALAQHLRARLDSGTPAREASSALRDGYRQAGVSGRVRSYLDLLAGLSDFREHFDGSDGFSLDLVDMADGPGEVTVICCAGTAAISGPHEFTRLAGALRGIAPVRAVPQPGYEEGEPLPSSMAAVAAVQADAVIRTQGDKPFVVAGHSAGALMAYALATELLDRGHPPRGVVLIDVYPPGHQDAMNAWLEELTATLFDRETVRMDDTRLTALGAYDRLTGQWRPRETGLPTLLVSAGEPMGPWPDDSWKPTWPFEHDTVAVPGDHFTMVQEHADAIARHIDAWLGGGNSHHHHHH
**Q.** For B1, which “diketide incorporation from acyl-ACP (product formation)” value [1] is on record?
**A.** Its value is “all four acyl-ACP adducts were observed to be substrates for (5)M3+TE”.

**Q.** What about the “diketide incorporation from acyl-ACP (product formation)” value [2] of the same protein?
**A.** The value was “all four acyl-ACP adducts were observed to be substrates for (5)M3+TE”.

**Q.** What about the “diketide incorporation from acyl-ACP (product formation)” value [3] of the same protein?
**A.** The value was “all four acyl-ACP adducts were observed to be substrates for (5)M3+TE”.

**Q.** What about the “diketide incorporation from acyl-ACP (product formation)” value [4] of the same protein?
**A.** Its value is “all four acyl-ACP adducts were observed to be substrates for (5)M3+TE”.

B2: M3+TE (module 3 of DEBS with its own N-terminal linker and with the thioesterase fused to the C-terminus; plasmid pRSG34) (protein)
chain: MTDSEKVAEYLRRATLDLRAARQRIRELESDIAIVSMACRLPGGVNTPQRLWELLREGGETLSGFPTDRGWDLARLHHPDPDNPGTSYVDKGGFLDDAAGFDAEFFGVSPREAAAMDPQQRLLLETSWELVENAGIDPHSLRGTATGVFLGVAKFGYGEDTAAAEDVEGYSVTGVAPAVASGRISYTMGLEGPSISVDTACSSSLVALHLAVESLRKGESSMAVVGGAAVMATPGVFVDFSRQRALAADGRSKAFGAGADGFGFSEGVTLVLLERLSEARRNGHEVLAVVRGSALNQDGASNGLSAPSGPAQRRVIRQALESCGLEPGDVDAVEAHGTGTALGDPIEANALLDTYGRDRDADRPLWLGSVKSNIGHTQAAAGVTGLLKVVLALRNGELPATLHVEEPTPHVDWSSGGVALLAGNQPWRRGERTRRARVSAFGISGTNAHVIVEEAPEREHRETTAHDGRPVPLVVSARTTAALRAQAAQIAELLERPDADLAGVGLGLATTRARHEHRAAVVASTREEAVRGLREIAAGAATADAVVEGVTEVDGRNVVFLFPGQGSQWAGMGAELLSSSPVFAGKIRACDESMAPMQDWKVSDVLRQAPGAPGLDRVDVVQPVLFAVMVSLAELWRSYGVEPAAVVGHSQGEIAAAHVAGALTLEDAAKLVVGRSRLMRSLSGEGGMAAVALGEAAVRERLRPWQDRLSVAAVNGPRSVVVSGEPGALRAFSEDCAAEGIRVRDIDVDYASHSPQIERVREELLETTGDIAPRPARVTFHSTVESRSMDGTELDARYWYRNLRETVRFADAVTRLAESGYDAFIEVSPHPVVVQAVEEAVEEADGAEDAVVVGSLHRDGGDLSAFLRSMATAHVSGVDIRWDVALPGAAPFALPTYPFQRKRYWLQPAAPAAASDELAYRVSWTPIEKPESGNLDGDWLVVTPLISPEWTEMLCEAINANGGRALRCEVDTSASRTEMAQAVAQAGTGFRGVLSLLSSDESACRPGVPAGAVGLLTLVQALGDAGVDAPVWCLTQGAVRTPADDDLARPAQTTAHGFAQVAGLELPGRWGGVVDLPESVDDAALRLLVAVLRGGGRAEDHLAVRDGRLHGRRVVRASLPQSGSRSWTPHGTVLVTGAASPVGDQLVRWLADRGAERLVLAGACPGDDLLAAVEEAGASAVVCAQDAAALREALGDEPVTALVHAGTLTNFGSISEVAPEEFAETIAAKTALLAVLDEVLGDRAVEREVYCSSVAGIWGGAGMAAYAAGSAYLDALAEHHRARGRSCTSVAWTPWALPGGAVDDGYLRERGLRSLSADRAMRTWERVLAAGPVSVAVADVDWPVLSEGFAATRPTALFAELAGRGGQAEAEPDSGPTGEPAQRLAGLSPDEQQENLLELVANAVAEVLGHESAAEINVRRAFSELGLDSLNAMALRKRLSASTGLRLPASLVFDHPTVTALAQHLRICCAGTAAISGPHEFTRLAGALRGIAPVRAVPQPGYEEGEPLPSSMAAVAAVQADAVIRTQGDKPFVVAGHSAGALMAYALATELLDRGHPPRGVVLIDVYPPGHQDAMNAWLEELTATLFDRETVRMDDTRLTALGAYDRLTGQWRPRETGLPTLLVSAGEPMGPWPDDSWKPTWPFEHDTVAVPGDHFTMVQEHADAIARHIDAWHHHHHH
**Q.** Which results are given for B2?
**A.** diketide incorporation from acyl-ACP (product formation) [1]: no product formation was observed from the incubation of any of the acyl-ACP adducts with (3)M3+TE; diketide incorporation from acyl-ACP (product formation) [2]: no product formation was observed from the incubation of any of the acyl-ACP adducts with (3)M3+TE; diketide incorporation from acyl-ACP (product formation) [3]: no product formation was observed from the incubation of any of the acyl-ACP adducts with (3)M3+TE; diketide incorporation from acyl-ACP (product formation) [4]: no product formation was observed from the incubation of any of the acyl-ACP adducts with (3)M3+TE

B3: (5)M2+TE (N-ERL-M2+TE; plasmid pRSG64) (protein)
chain: MSGDNGMTEEKLRRYLKRTVTELDSVTARLREVEHRAGEIAIVGMACRLPGEVDSPERLWELITSGRDSAAEVPDDRGWVPDELMASDAAGTRAHGNFMAGAGDFDAAFFGISPREALAMDPQQRQALETTWEALESAGIPPETLRGSDTGVFVGMSHQGYATGRPRPEDGVDGYLLTGNTASVASGRIAYVLGLEGPALTVDTACSSSLVALHTACGSLRDGDCGLAVAGGVSVMAGPEVFTEFSRQGALSPDGRCKPFSDEADGFGLGEGSAFVVLQRLSDARREGRRVLGVVAGSAVNQDGASNGLSAPSGVAQQRVIRRAWARAGITGADVAVVEAHGTGTRLGDPVEASALLATYGKSRGSSGPVLLGSVKSNIGHAQAAAGVAGVIKVLLGLERGVVPPMLCRGERSGLIDWSSGEIELADGVREWSPAADGVRRAGVSAFGVSGTNAHVIIAEPPEPEPVPQPRRMLPATGVVPVVLSARTGAALRAQAGRLADHLAAHPGIAPADVSWTMARARQHFEERAAVLAADTAEAVHRLRAVADGAVVPGVVTGSASDGGSVFVFPGQGAQWEGMARELLPVPVFAESIAECDAVLSEVAGFSVSEVLEPRPDAPSLERVDVVQPVLFAVMVSLARLWRACGAVPSAVIGHSQGEIAAAVVAGALSLEDGMRVVARRSRAVRAVAGRGSMLSVRGGRSDVEKLLADDSWTGRLEVAAVNGPDAVVVAGDAQAAREFLEYCEGVGIRARAIPVDYASHTAHVEPVRDELVQALAGITPRRAEVPFFSTLTGDFLDGTELDAGYWYRNLRHPVEFHSAVQALTDQGYATFIEVSPHPVLASSVQETLDDAESDAAVLGTLERDAGDADRFLTALADAHTRGVAVDWEAVLGRAGLVDLPGYPFQGKRFWLLPDRTTPRDELDGWFYRVDWTEVPRSEPAALRGRWLVVVPEGHEEDGWTVEVRSALAEAGAEPEVTRGVGGLVGDCAGVVSLLALEGDGAVQTLVLVRELDAEGIDAPLWTVTFGAVDAGSPVARPDQAKLWGLGQVASLERGPRWTGLVDLPHMPDPELRGRLTAVLAGSEDQVAVRADAVRARRLSPAHVTATSEYAVPGGTILVTGGTAGLGAEVARWLAGRGAEHLALVSRRGPDTEGVGDLTAELTRLGARVSVHACDVSSREPVRELVHGLIEQGDVVRGVVHAAGLPQQVAINDMDEAAFDEVVAAKAGGAVHLDELCSDAELFLLFSSGAGVWGSARQGAYAAGNAFLDAFARHRRGRGLPATSVAWGLWAAGGMTGDEEAVSFLRERGVRAMPVPRALAALDRVLASGETAVVVTDVDWPAFAESYTAARPRPLLDRIVTTAPSERAGEPETESLRDRLAGLPRAERTAELVRLVRTSTATVLGHDDPKAVRATTPFKELGFDSLAAVRLRNLLNAATGLRLPSTLVFDHPNASAVAGFLDICCAGTAAISGPHEFTRLAGALRGIAPVRAVPQPGYEEGEPLPSSMAAVAAVQADAVIRTQGDKPFVVAGHSAGALMAYALATELLDRGHPPRGVVLIDVYPPGHQDAMNAWLEELTATLFDRETVRMDDTRLTALGAYDRLTGQWRPRETGLPTLLVSAGEPMGPWPDDSWKPTWPFEHDTVAVPGDHFTMVQEHADAIARHIDAWHHHHHH
**Q.** Which “diketide incorporation from acyl-ACP (triketide lactone formation)” value [1] does the source give for B3 here?
**A.** Its value is “Both 4a and 4b were accepted and extended by all three modules”.

**Q.** What about the “diketide incorporation from acyl-ACP (triketide lactone formation)” value [2] of the same protein?
**A.** The value was 4c and 4d were also substrates for the three modules.

**Q.** And the “diketide incorporation from acyl-ACP (triketide lactone formation)” value [3]?
**A.** The value was “Both 4a and 4b were accepted and extended by all three modules”.

**Q.** And the “diketide incorporation from acyl-ACP (triketide lactone formation)” value [4]?
**A.** The value was 4c and 4d were also substrates for the three modules.
